24-hour cytotoxicity against NB1691 cells data for 1 substance are collected here from patent publication EP3057986B1.

The assay concerns the target CD16V-BB-ζ chimeric receptor (human). In words: cell-based or functional assay.

Where only a bound is given, the exact number is not on record here.

Substance hu14.18K322A (antibody) returned a 24-hour cytotoxicity against NB1691 cells at 1:8 E:T of more than 50%.
